We go through one molecule from patent publication US20100197581A1 (TIBOTEC PHARMACEUTICALS, published 2010).

This assay has as its target sCD4 induced HIV-1 IIIB Env complexes (gp120/gp41 native spikes) on HUTIIIB cells (clone 199-76) (HIV-1 IIIB; human, UniProt P04578 33-856; P01730 26-396).

B1: F105 (antibody, V domains shown)
VH: QVQLQESGPGLVKPSETLSLTCTVSGGSISSHYWSWIRQSPGKGLQWIGYIYYSGSTNYSPSLKSRVTISVETSKNQFSLKLTSMTAADTAVYYCARGPVPAVFYGDYRLDPWGQGTLVTVSS
VL: EIVLTQSPGTLSLSAGERATLSCRASQSVSSRYLAWYQQKPGQAPRLLIYGASSRATGIPDRFSGSGSGTDFTLTISRVEPEDFAVYYCQQYDNSVCTFGQGTKLEIK
One may read the EC50 as the concentration giving half of the maximal effect. Lower therefore signals greater potency. Take B1: the EC50 was > 100 nM.
